A short description of the data set: protein stability index of a GFP-peptide fusion (yeast GPS) (PSI 1-4); higher = more stable; sorted into four equal gates, so the index is relative within each strain. The gist of the method:
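Plasmids isolated from each sorting gate were PCR-amplified and Illumina-sequenced, and barcodes assigned the reads to strains. The gates, four of equal size, were set by GFP/Cherry fluorescence ratio on mid-log cultures in leucine-free medium. These cultures were yeast carrying a pooled library of tiled 17-residue yeast protein peptides fused downstream of GFP on a plasmid that also expresses Cherry. The protein stability index is the sum of every gate's read frequency times its gate number.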

± gives the uncertainty stated by the source.

Turning to MIDLGFEDQVTNILTKV [PRP28], the protein stability index by setting is: (pdr5∆) 3.67 ± 0.25; (san1∆) 2.88 ± 0.22; (ubr1∆) 3.16 ± 0.19.
As for IRKTPLAQKKAHLAEIQ [RPL3], the protein stability index by setting is: (doa10∆) 2.19 ± 0.1; (pdr5∆) 1.39 ± 0.066; (san1∆) 2.77 ± 0.12; (ubr1∆) 1.26 ± 0.05.
On the same counts, the results for EKIKSKKINRRNETSVD [YCG1] are 3.38 ± 0.094, 3.09 ± 0.085, 3.19 ± 0.08 and 3.33 ± 0.069.
On the same counts, the results for MSTELTVQSERAFQKQP [RPS11A] are 3.13 ± 0.1, 2.97 ± 0.099, 2.98 ± 0.11 and 2.75 ± 0.076.
With GGTSLFGNTSTSSAPAQ [YGL172W/NUP49], the protein stability index was 2.17 ± 0.17 (doa10∆), 2.19 ± 0.096 (pdr5∆) and 2.15 ± 0.091 (ubr1∆).
Take EAASITRKSLNNAVRFS [ECM29]: the protein stability index was 2.59 ± 0.081 (doa10∆), 2.88 ± 0.084 (pdr5∆), 2.86 ± 0.055 (san1∆) and 2.97 ± 0.048 (ubr1∆).
With KPWFATVNGQARDLATM [FAS1], the protein stability index reads like this: (doa10∆) 3.01 ± 0.11; (pdr5∆) 3.08 ± 0.1; (san1∆) 3 ± 0.083; (ubr1∆) 3.05 ± 0.064.
Take LIVDTHVQFRLGNVDAF [PRP8]: the protein stability index stood at 2.75 ± 0.11 (doa10∆), 2 ± 0.11 (pdr5∆), 2.32 ± 0.13 (san1∆) and 1.72 ± 0.066 (ubr1∆).
For the sequence ENAYDNPLADAEEALEP [PRE4], the protein stability index (doa10∆) is 3.1 ± 0.086, the protein stability index (pdr5∆) came out at 3 ± 0.082, the protein stability index (san1∆) was found to be 3.1 ± 0.063 and the protein stability index (ubr1∆) amounted to 3.13 ± 0.057.
On to IKAFMDSTIGNSKVDMK [IRR1], for which the protein stability index runs as follows: (doa10∆) 2.57 ± 0.27; (pdr5∆) 2.45 ± 0.16; (ubr1∆) 2.05 ± 0.19.
Turning to QNFENDFSLRYISNLLY [REC8], the protein stability index worked out at 2.19 ± 0.074 (doa10∆), 2.29 ± 0.076 (pdr5∆), 2.02 ± 0.11 (san1∆) and 2.06 ± 0.043 (ubr1∆).
For KNVKHSGNIQLDEIIEI [RPL12A], the protein stability index is, setting by setting: (doa10∆) 3.24 ± 0.071; (pdr5∆) 3.2 ± 0.067; (san1∆) 3.15 ± 0.053; (ubr1∆) 3.22 ± 0.065.
Turning to GSEILGDLKLQVLLDEE [RPO21], the protein stability index runs as follows: (doa10∆) 3.25 ± 0.12; (pdr5∆) 3.35 ± 0.13; (san1∆) 3.04 ± 0.14; (ubr1∆) 3.28 ± 0.1.
Take RMSYGSHDKKTKCSTVV [SRP14]: the protein stability index by setting is: (doa10∆) 2.96 ± 0.092; (pdr5∆) 3.07 ± 0.12; (san1∆) 3.19 ± 0.045; (ubr1∆) 3.33 ± 0.088.
With FGNSLICEDPETAKKIT [SMC2], the protein stability index was 2.82 ± 0.1 (doa10∆), 2.74 ± 0.084 (pdr5∆), 2.62 ± 0.24 (san1∆) and 2.91 ± 0.075 (ubr1∆).
As for GISVPFHSTYLMNGVKP [FAS1], the protein stability index was 1.46 ± 0.042 (doa10∆), 1.51 ± 0.04 (pdr5∆), 1.27 ± 0.074 (san1∆) and 1.39 ± 0.027 (ubr1∆).
As for QLDSKLMVFNDDTKNQD [YGR119C/NUP57], the protein stability index is, setting by setting: (doa10∆) 2.93 ± 0.062; (pdr5∆) 2.75 ± 0.054; (san1∆) 2.6 ± 0.057; (ubr1∆) 2.91 ± 0.045.
Consider VSSESSDEAIIPVNKRR [SIR3], for which the protein stability index reads like this: (doa10∆) 3.31 ± 0.15; (pdr5∆) 2.98 ± 0.12; (san1∆) 3.02 ± 0.1; (ubr1∆) 3.22 ± 0.082.
For KVAKRTKIKPFIKVVNY [RPL27A], the protein stability index was determined as 2.9 ± 0.09 (doa10∆), 2.8 ± 0.096 (pdr5∆), 2.86 ± 0.06 (san1∆) and 2.64 ± 0.076 (ubr1∆).
Take MKDRLVEWNDQVEKLGK [RPN9]: the protein stability index by setting is: (doa10∆) 3.4 ± 0.13; (pdr5∆) 3.06 ± 0.1; (san1∆) 3.36 ± 0.083; (ubr1∆) 3.39 ± 0.085.
Consider IKGIREYEEWQKSVSLL [YDL116W/NUP84], for which the protein stability index (doa10∆) is 2.08 ± 0.14, the protein stability index (pdr5∆) turned out to be 2.66 ± 0.12, the protein stability index (san1∆) came out at 2.5 ± 0.17 and the protein stability index (ubr1∆) came to 2.55 ± 0.095.
For the sequence TNFSPTPANNGENAAEK [SNF2], the protein stability index runs as follows: (doa10∆) 2.42 ± 0.067; (pdr5∆) 2.77 ± 0.072; (san1∆) 2.21 ± 0.074; (ubr1∆) 2.81 ± 0.05.
On the same counts, the results for GILYMGQGEQVDDVLET [RPN1] are 1.23 ± 0.16, 1.19 ± 0.15, 1.07 ± 0.18 and 1.23 ± 0.11.
As for LFQDGSASLHTRSLKYG [RRP4], the protein stability index was 2.48 ± 0.085 (doa10∆), 2.76 ± 0.088 (pdr5∆), 2.59 ± 0.1 (san1∆) and 2.88 ± 0.059 (ubr1∆).
On to FMDVITLDATNENFRLV [RPS4A], for which the protein stability index came to 3.44 ± 0.28 (pdr5∆), 2.72 ± 0.25 (san1∆) and 3 ± 0.18 (ubr1∆).
With IITNINAIFLSSEQDYS [YCG1], the protein stability index runs as follows: (doa10∆) 2.54 ± 0.078; (pdr5∆) 2.58 ± 0.13; (san1∆) 1.58 ± 0.22; (ubr1∆) 2.89 ± 0.098.
For the sequence KRSDLTGANSIYSVEKK [UBP6], the protein stability index reads like this: (doa10∆) 3.09 ± 0.12; (pdr5∆) 2.8 ± 0.15; (san1∆) 2.57 ± 0.15; (ubr1∆) 3.16 ± 0.056.
Turning to WQSGLKMYDYEEKEESN [RPN11], the protein stability index is 2.98 ± 0.13 (doa10∆), 3.26 ± 0.13 (pdr5∆), 2.93 ± 0.1 (san1∆) and 3 ± 0.16 (ubr1∆).
Regarding DSGRGAPLAKVVFRDPY [RPL2A], the protein stability index is, setting by setting: (doa10∆) 3.06 ± 0.12; (pdr5∆) 2.83 ± 0.13; (san1∆) 3.03 ± 0.072; (ubr1∆) 3.01 ± 0.067.
In the case of DPDIPMTIDLEPIEESS [IRR1], the protein stability index runs as follows: (doa10∆) 3.06 ± 0.086; (pdr5∆) 3.45 ± 0.1; (san1∆) 3.01 ± 0.13; (ubr1∆) 3.15 ± 0.11.
The sequence PGHSLLLSIKLPGKVNT [SNF5] registered a protein stability index (doa10∆) of 2.37 ± 0.059, a protein stability index (pdr5∆) of 1.77 ± 0.039, a protein stability index (san1∆) of 2.08 ± 0.058 and a protein stability index (ubr1∆) of 2.29 ± 0.04.
On the same counts, the results for ILEDDFAVALKNEPDYS [CDC53] are 3.3 ± 0.088, 3.09 ± 0.14, 3.24 ± 0.072 and 2.87 ± 0.12.
As for LLVQKRFKYAPGTIVLY [RPS3], the protein stability index runs as follows: (doa10∆) 2.51 ± 0.12; (pdr5∆) 1.87 ± 0.073; (san1∆) 1.72 ± 0.13; (ubr1∆) 1.31 ± 0.039.
RMRNRALREMRKSDQQD [POP1] returned a protein stability index (doa10∆) of 3.61 ± 0.13, a protein stability index (pdr5∆) of 3.63 ± 0.17, a protein stability index (san1∆) of 3.23 ± 0.11 and a protein stability index (ubr1∆) of 3.13 ± 0.13.
With WAVKEGPLAEEPIYGVQ [SNU114], the protein stability index (doa10∆) came out at 2.8 ± 0.067, the protein stability index (pdr5∆) turned out to be 2.53 ± 0.079, the protein stability index (san1∆) came to 2.76 ± 0.061 and the protein stability index (ubr1∆) turned out to be 1.8 ± 0.047.
For the sequence KNYLKNYILNFKQSNSE [CDC53], the protein stability index by setting is: (doa10∆) 2.6 ± 0.044; (pdr5∆) 1.95 ± 0.043; (san1∆) 2.34 ± 0.083; (ubr1∆) 1.89 ± 0.037.
Consider TKPSETPATIVKKPTFT [YOR098C/NUP1], for which the protein stability index by setting is: (doa10∆) 2.91 ± 0.05; (pdr5∆) 3.08 ± 0.057; (san1∆) 3.09 ± 0.043; (ubr1∆) 3.04 ± 0.054.
